{"source": "paper doi:10.1101/2024.01.24.577054", "about": "(bioRxiv, 2024)", "proteins": {"B1": {"name": "BmrA, homodimeric multi-drug resistance ABC exporter from B. subtilis (His-C-ter-BmrA), labelled with sulfo-Cy3/sulfo-Cy5 (natural protein, UniProt O06967 1-589, looked up)", "chain": "MPTKKQKSKSKLKPFFALVRRTNPSYGKLAFALALSVVTTLVSLLIPLLTKQLVDGFSMSNLSGTQIGLIALVFFVQAGLSAYATYALNYNGQKIISGLRELLWKKLIKLPVSYFDTNASGETVSRVTNDTMVVKELITTHISGFITGIISVIGSLTILFIMNWKLTLLVLVVVPLAALILVPIGRKMFSISRETQDETARFTGLLNQILPEIRLVKASNAEDVEYGRGKMGISSLFKLGVREAKVQSLVGPLISLVLMAALVAVIGYGGMQVSSGELTAGALVAFILYLFQIIMPMGQITTFFTQLQKSIGATERMIEILAEEEEDTVTGKQIENAHLPIQLDRVSFGYKPDQLILKEVSAVIEAGKVTAIVGPSGGGKTTLFKLLERFYSPTAGTIRLGDEPVDTYSLESWREHIGYVSQESPLMSGTIRENICYGLERDVTDAEIEKAAEMAYALNFIKELPNQFDTEVGERGIMLSGGQRQRIAIARALLRNPSILMLDEATSSLDSQSEKSVQQALEVLMEGRTTIVIAHRLSTVVDADQLLFVEKGEITGRGTHHELMASHGLYRDFAEQQLKMNADLENKAG", "modifications": "sulfo-Cy3 or sulfo-Cy5 maleimide dye on C436 (the sole Cys residue of each monomer)"}}, "biological_target": "the molecule itself", "assay": "FRET or BRET"}
{"protein": "B1", "values": [{"measurement": "binding result", "value": "binds"}]}
